Data as given in publication PMC2625445, “Mycobacterium tuberculosis Rv3802c Encodes a Phospholipase/Thioesterase and Is Inhibited by the Antimycobacterial Agent Tetrahydrolipstatin” (PLoS ONE, 2009).

Tests used:
Rv3802 = target: T1, Rv3802 (Mycobacterium tuberculosis, UniProt O53581); assay: […]; TLC of […]-palmitoyl-CoA hydrolysis; type: biochemical
T1 construct: gene cut6

[1] = tested on: CCCCCCCCCC(=O)SCCNC(=O)CCNC(=O)[C@H](O)C(C)(C)COP(=O)(O)OP(=O)(O)OC[C@H]1O[C@@H](n2cnc3c(N)ncnc32)[C@H](O)[C@@H]1OP(=O)(O)O; assay: purified protein
[2] = tested on: CCCCCCCCCCCCCCCC(=O)SCCNC(=O)CCNC(=O)[C@H](O)C(C)(C)COP(=O)(O)OP(=O)(O)OC[C@H]1O[C@@H](n2cnc3c(N)ncnc32)[C@H](O)[C@@H]1OP(=O)(O)O; assay: purified protein

T1 sequence (O53581 37-336): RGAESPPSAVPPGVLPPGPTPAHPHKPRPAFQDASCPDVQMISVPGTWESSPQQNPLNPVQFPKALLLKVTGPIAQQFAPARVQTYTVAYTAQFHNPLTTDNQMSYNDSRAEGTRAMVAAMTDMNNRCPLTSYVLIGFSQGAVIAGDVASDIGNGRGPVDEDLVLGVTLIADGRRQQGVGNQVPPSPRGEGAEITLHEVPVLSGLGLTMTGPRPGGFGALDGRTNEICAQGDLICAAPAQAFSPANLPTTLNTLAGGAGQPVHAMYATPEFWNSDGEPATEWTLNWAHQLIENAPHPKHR

Compound	Ki (Rv3802) [nM]	Km [1] [mM]	kcat [1] [s⁻¹]	kcat/Km [1] [M⁻¹ s⁻¹]	Km [2] [mM]
CCCCCCCCCCC[C@@H](C[C@@H]1OC(=O)[C@H]1CCCCCC)OC(=O)[C@H](CC(C)C)NC=O [THL, tetrahydrolipstatin]	5				
Rv3802 (Mycobacterium tuberculosis H37Rv)		2.28	0.0845 ± 0.0253	37 ± 11.1	0.017
